{"source": "patent US20240117018A1", "assay_in_all_cases": "cell-based or functional assay", "key": {"[1]": {"molecular_target": "Env of HIV-1 pseudovirus 3415.v1.c1 (HIV-1)"}, "[2]": {"molecular_target": "Q259.d2.17 Env pseudovirus (HIV-1)"}, "[3]": {"molecular_target": "6535.3 Env pseudovirus (HIV-1)"}, "[4]": {"molecular_target": "CNE53 Env pseudovirus (HIV-1)"}, "[5]": {"molecular_target": "1056_10_TA11_1826 Env pseudovirus (HIV-1)"}, "[6]": {"molecular_target": "1394C9G1(Rev-) Env pseudovirus (HIV-1)"}, "[7]": {"molecular_target": "CNE19 Env pseudovirus (HIV-1)"}, "[8]": {"molecular_target": "CNE17 Env pseudovirus (HIV-1)"}, "[9]": {"molecular_target": "PVO.4 Env pseudovirus (HIV-1)"}, "[10]": {"molecular_target": "ZM247v1(Rev-) Env pseudovirus (HIV-1)"}, "[11]": {"molecular_target": "QH0692.42 Env pseudovirus (HIV-1)"}, "[12]": {"molecular_target": "1006_11_C3_1601 Env pseudovirus (HIV-1)"}, "[13]": {"molecular_target": "Ce1172_H1 Env pseudovirus (HIV-1)"}, "[14]": {"molecular_target": "Q23.17 Env pseudovirus (HIV-1)"}, "[15]": {"molecular_target": "6244_13_B5_4576 Env pseudovirus (HIV-1)"}, "[16]": {"molecular_target": "HIV-16845-2.22 Env pseudovirus (HIV-1)"}, "[17]": {"molecular_target": "Ce0682_E4 Env pseudovirus (HIV-1)"}, "[18]": {"molecular_target": "CAP45.2.00.G3 Env pseudovirus (HIV-1)"}, "[19]": {"molecular_target": "REJO4541.67 Env pseudovirus (HIV-1)"}, "[20]": {"molecular_target": "1012_11_TC21_3257 Env pseudovirus (HIV-1)"}, "[21]": {"molecular_target": "ZM109F.PB4 Env pseudovirus (HIV-1)"}, "[22]": {"molecular_target": "HIV-0013095-2.11 Env pseudovirus (HIV-1)"}, "[23]": {"molecular_target": "CNE52 Env pseudovirus (HIV-1)"}, "[24]": {"molecular_target": "Ce2010_F5 Env pseudovirus (HIV-1)"}, "[25]": {"molecular_target": "ZM214M.PL15 Env pseudovirus (HIV-1)"}, "[26]": {"molecular_target": "Q769.d22 Env pseudovirus (HIV-1)"}, "[27]": {"molecular_target": "0260.v5.c36 Env pseudovirus (HIV-1)"}, "[28]": {"molecular_target": "ZM135M.PL10a Env pseudovirus (HIV-1)"}, "[29]": {"molecular_target": "TRJO4551.58 Env pseudovirus (HIV-1)"}, "[30]": {"molecular_target": "CNE58 Env pseudovirus (HIV-1)"}, "[31]": {"molecular_target": "HIV-001428-2.42 Env pseudovirus (HIV-1)"}, "[32]": {"molecular_target": "RHPA4259.7 Env pseudovirus (HIV-1)"}, "[33]": {"molecular_target": "CNE30 Env pseudovirus (HIV-1)"}, "[34]": {"molecular_target": "HIV-1 Env pseudovirus T257-31 (HIV-1)"}, "[35]": {"molecular_target": "HIV-1 Env pseudovirus 3365.v2.c2 (HIV-1)"}, "[36]": {"molecular_target": "HIV-1 Env pseudovirus 263-8 (HIV-1)"}}}
{"substance": "10-1074 (antibody)", "values": [{"measurement": "IC50", "setting": "[1]", "value": "> 50", "unit": "µg/mL"}, {"measurement": "IC80", "setting": "[1]", "value": "> 50", "unit": "µg/mL"}]}
{"substance": "PGT121 (antibody)", "values": [{"measurement": "IC50", "setting": "[2]", "value": 15.4, "unit": "µg/mL"}, {"measurement": "IC80", "setting": "[2]", "value": "> 50", "unit": "µg/mL"}, {"measurement": "IC50", "setting": "[3]", "value": 0.002, "unit": "µg/mL"}, {"measurement": "IC80", "setting": "[3]", "value": 0.008, "unit": "µg/mL"}, {"measurement": "IC50", "setting": "[4]", "value": 0.007, "unit": "µg/mL"}, {"measurement": "IC80", "setting": "[4]", "value": 0.024, "unit": "µg/mL"}, {"measurement": "IC50", "setting": "[5]", "value": 0.004, "unit": "µg/mL"}, {"measurement": "IC80", "setting": "[5]", "value": 0.081, "unit": "µg/mL"}, {"measurement": "IC50", "setting": "[6]", "value": 0.264, "unit": "µg/mL"}, {"measurement": "IC80", "setting": "[6]", "value": 1.95, "unit": "µg/mL"}, {"measurement": "IC50", "setting": "[7]", "value": 0.008, "unit": "µg/mL"}, {"measurement": "IC80", "setting": "[7]", "value": 0.105, "unit": "µg/mL"}, {"measurement": "IC50", "setting": "[8]", "value": 7.6, "unit": "µg/mL"}, {"measurement": "IC80", "setting": "[8]", "value": "> 50", "unit": "µg/mL"}, {"measurement": "IC50", "setting": "[9]", "value": 0.098, "unit": "µg/mL"}, {"measurement": "IC80", "setting": "[9]", "value": 0.343, "unit": "µg/mL"}, {"measurement": "IC50", "setting": "[10]", "value": 0.028, "unit": "µg/mL"}, {"measurement": "IC80", "setting": "[10]", "value": 0.082, "unit": "µg/mL"}, {"measurement": "IC50", "setting": "[11]", "value": 0.302, "unit": "µg/mL"}, {"measurement": "IC80", "setting": "[11]", "value": 2.31, "unit": "µg/mL"}, {"measurement": "IC50", "setting": "[12]", "value": 0.002, "unit": "µg/mL"}, {"measurement": "IC80", "setting": "[12]", "value": 0.007, "unit": "µg/mL"}, {"measurement": "IC80", "setting": "[13]", "value": 0.036, "unit": "µg/mL"}, {"measurement": "IC50", "setting": "[14]", "value": "< 0.001", "unit": "µg/mL"}, {"measurement": "IC80", "setting": "[14]", "value": 0.005, "unit": "µg/mL"}, {"measurement": "IC50", "setting": "[15]", "value": 0.061, "unit": "µg/mL"}, {"measurement": "IC80", "setting": "[15]", "value": 0.347, "unit": "µg/mL"}, {"measurement": "IC50", "setting": "[16]", "value": 3.97, "unit": "µg/mL"}, {"measurement": "IC80", "setting": "[16]", "value": 44.6, "unit": "µg/mL"}, {"measurement": "IC50", "setting": "[17]", "value": "> 50", "unit": "µg/mL"}, {"measurement": "IC80", "setting": "[17]", "value": "> 50", "unit": "µg/mL"}, {"measurement": "IC50", "setting": "[18]", "value": 1.63, "unit": "µg/mL"}, {"measurement": "IC80", "setting": "[18]", "value": "> 50", "unit": "µg/mL"}, {"measurement": "IC50", "setting": "[19]", "value": 4.77, "unit": "µg/mL"}, {"measurement": "IC80", "setting": "[19]", "value": "> 50", "unit": "µg/mL"}, {"measurement": "IC50", "setting": "[20]", "value": 0.003, "unit": "µg/mL"}, {"measurement": "IC80", "setting": "[20]", "value": 0.017, "unit": "µg/mL"}, {"measurement": "IC50", "setting": "[21]", "value": 8.64, "unit": "µg/mL"}, {"measurement": "IC80", "setting": "[21]", "value": "> 50", "unit": "µg/mL"}, {"measurement": "IC50", "setting": "[22]", "value": "> 50", "unit": "µg/mL"}, {"measurement": "IC80", "setting": "[22]", "value": "> 50", "unit": "µg/mL"}, {"measurement": "IC50", "setting": "[23]", "value": 2.04, "unit": "µg/mL"}, {"measurement": "IC80", "setting": "[23]", "value": 18.9, "unit": "µg/mL"}, {"measurement": "IC50", "setting": "[24]", "value": "> 50", "unit": "µg/mL"}, {"measurement": "IC80", "setting": "[24]", "value": "> 50", "unit": "µg/mL"}, {"measurement": "IC50", "setting": "[25]", "value": 0.46, "unit": "µg/mL"}, {"measurement": "IC80", "setting": "[25]", "value": 2.04, "unit": "µg/mL"}, {"measurement": "IC50", "setting": "[26]", "value": "> 50", "unit": "µg/mL"}, {"measurement": "IC80", "setting": "[26]", "value": "> 50", "unit": "µg/mL"}, {"measurement": "IC50", "setting": "[27]", "value": 0.053, "unit": "µg/mL"}, {"measurement": "IC80", "setting": "[27]", "value": 0.197, "unit": "µg/mL"}, {"measurement": "IC50", "setting": "[28]", "value": 0.716, "unit": "µg/mL"}, {"measurement": "IC80", "setting": "[28]", "value": 5.25, "unit": "µg/mL"}, {"measurement": "IC50", "setting": "[29]", "value": 1.31, "unit": "µg/mL"}, {"measurement": "IC80", "setting": "[29]", "value": 37.9, "unit": "µg/mL"}, {"measurement": "IC50", "setting": "[30]", "value": "> 50", "unit": "µg/mL"}, {"measurement": "IC80", "setting": "[30]", "value": "> 50", "unit": "µg/mL"}, {"measurement": "IC50", "setting": "[31]", "value": 0.014, "unit": "µg/mL"}, {"measurement": "IC80", "setting": "[31]", "value": 0.051, "unit": "µg/mL"}, {"measurement": "IC80", "setting": "[32]", "value": 0.035, "unit": "µg/mL"}, {"measurement": "IC50", "setting": "[33]", "value": 0.078, "unit": "µg/mL"}, {"measurement": "IC80", "setting": "[33]", "value": 0.291, "unit": "µg/mL"}]}
{"substance": "VRC01 (antibody)", "values": [{"measurement": "IC50 (Titer in TZM.bl cells)", "setting": "[34]", "value": 2.8, "unit": "µg/mL"}, {"measurement": "IC80 (Titer in TZM.bl cells)", "setting": "[34]", "value": 8.66, "unit": "µg/mL"}, {"measurement": "IC50 (Titer in TZM.bl cells)", "setting": "[35]", "value": 0.06, "unit": "µg/mL"}, {"measurement": "IC80 (Titer in TZM.bl cells)", "setting": "[35]", "value": 0.17, "unit": "µg/mL"}, {"measurement": "IC50 (Titer in TZM.bl cells)", "setting": "[36]", "value": 0.2, "unit": "µg/mL"}, {"measurement": "IC80 (Titer in TZM.bl cells)", "setting": "[36]", "value": 0.55, "unit": "µg/mL"}]}
